Data: patent WO2011147762A2

Columns and labels:
[1] = target: ED-B fibronectin antigen protein (recombinant), bound to CNBr activated sepharose 4B (UniProt P02751); experiment: ED-B sepharose column, % of total radioactivity bound; Study B3; human serum albumin 10 mg/mL; day 3
[2] = target: ED-B fibronectin antigen protein (recombinant), bound to CNBr activated sepharose 4B (UniProt P02751); experiment: ED-B sepharose column, % of total radioactivity bound; Study A; no-excipient control (saline); day 5
[3] = target: ED-B fibronectin antigen protein (recombinant), bound to CNBr activated sepharose 4B (UniProt P02751); experiment: ED-B sepharose column, % of total radioactivity bound; Study A; sodium thiosulfate 50 mg/mL; day 1
[4] = target: ED-B fibronectin antigen protein (recombinant), bound to CNBr activated sepharose 4B (UniProt P02751); experiment: ED-B sepharose column, % of total radioactivity bound; Study B3; inositol 10 mg/mL; day 7
[5] = target: ED-B fibronectin antigen protein (recombinant), bound to CNBr activated sepharose 4B (UniProt P02751); experiment: ED-B sepharose column, % of total radioactivity bound; Study A; inositol 25 mg/mL; day 5
[6] = target: ED-B fibronectin antigen protein (recombinant), bound to CNBr activated sepharose 4B (UniProt P02751); experiment: ED-B sepharose column, % of total radioactivity bound; Study B3; no-excipient control (PBS); day 1
[7] = target: ED-B fibronectin antigen protein (recombinant), bound to CNBr activated sepharose 4B (UniProt P02751); experiment: ED-B sepharose column, % of total radioactivity bound; Study A; no-excipient control (saline); day 0
[8] = target: ED-B fibronectin antigen protein (recombinant), bound to CNBr activated sepharose 4B (UniProt P02751); experiment: ED-B sepharose column, % of total radioactivity bound; Study A; inositol 50 mg/mL; day 3
[9] = target: ED-B fibronectin antigen protein (recombinant), bound to CNBr activated sepharose 4B (UniProt P02751); experiment: ED-B sepharose column, % of total radioactivity bound; Study A; maltose 50 mg/mL; day 3
[10] = target: ED-B fibronectin antigen protein (recombinant), bound to CNBr activated sepharose 4B (UniProt P02751); experiment: ED-B sepharose column, % of total radioactivity bound; Study A; maltose 10 mg/mL; day 5
[11] = target: ED-B fibronectin antigen protein (recombinant), bound to CNBr activated sepharose 4B (UniProt P02751); experiment: ED-B sepharose column, % of total radioactivity bound; Study A; maltose 50 mg/mL; day 7
[12] = target: ED-B fibronectin antigen protein (recombinant), bound to CNBr activated sepharose 4B (UniProt P02751); experiment: ED-B sepharose column, % of total radioactivity bound; Study A; sodium thiosulfate 50 mg/mL; day 3
[13] = target: ED-B fibronectin antigen protein (recombinant), bound to CNBr activated sepharose 4B (UniProt P02751); experiment: ED-B sepharose column, % of total radioactivity bound; Study A; sodium thiosulfate 5 mg/mL; day 0
[14] = target: ED-B fibronectin antigen protein (recombinant), bound to CNBr activated sepharose 4B (UniProt P02751); experiment: ED-B sepharose column, % of total radioactivity bound; Study A; methionine 10 mg/mL; day 3
[15] = target: ED-B fibronectin antigen protein (recombinant), bound to CNBr activated sepharose 4B (UniProt P02751); experiment: ED-B sepharose column, % of total radioactivity bound; Study A; methionine 5 mg/mL; day 1
[16] = target: ED-B fibronectin antigen protein (recombinant), bound to CNBr activated sepharose 4B (UniProt P02751); experiment: ED-B sepharose column, % of total radioactivity bound; Study A; sodium thiosulfate 5 mg/mL; day 7
[17] = target: ED-B fibronectin antigen protein (recombinant), bound to CNBr activated sepharose 4B (UniProt P02751); experiment: ED-B sepharose column, % of total radioactivity bound; Study A; methionine 10 mg/mL; day 7
[18] = target: ED-B fibronectin antigen protein (recombinant), bound to CNBr activated sepharose 4B (UniProt P02751); experiment: ED-B sepharose column, % of total radioactivity bound; Study B3; no-excipient control (PBS); day 5
[19] = target: ED-B fibronectin antigen protein (recombinant), bound to CNBr activated sepharose 4B (UniProt P02751); experiment: ED-B sepharose column, % of total radioactivity bound; Study A; methionine 10 mg/mL; day 5
[20] = target: ED-B fibronectin antigen protein (recombinant), bound to CNBr activated sepharose 4B (UniProt P02751); experiment: ED-B sepharose column, % of total radioactivity bound; Study A; sodium thiosulfate 5 mg/mL; day 3
[21] = target: ED-B fibronectin antigen protein (recombinant), bound to CNBr activated sepharose 4B (UniProt P02751); experiment: ED-B sepharose column, % of total radioactivity bound; Study A; inositol 50 mg/mL; day 5
[22] = target: ED-B fibronectin antigen protein (recombinant), bound to CNBr activated sepharose 4B (UniProt P02751); experiment: ED-B sepharose column, % of total radioactivity bound; Study A; trolox 5 mg/mL; day 3
[23] = target: ED-B fibronectin antigen protein (recombinant), bound to CNBr activated sepharose 4B (UniProt P02751); experiment: ED-B sepharose column, % of total radioactivity bound; Study B3; no-excipient control (PBS); day 2
[24] = target: ED-B fibronectin antigen protein (recombinant), bound to CNBr activated sepharose 4B (UniProt P02751); experiment: ED-B sepharose column, % of total radioactivity bound; Study B3; thioglycerol 10 mg/mL; day 5
[25] = target: ED-B fibronectin antigen protein (recombinant), bound to CNBr activated sepharose 4B (UniProt P02751); experiment: ED-B sepharose column, % of total radioactivity bound; Study A; inositol 10 mg/mL; day 3
[26] = target: ED-B fibronectin antigen protein (recombinant), bound to CNBr activated sepharose 4B (UniProt P02751); experiment: ED-B sepharose column, % of total radioactivity bound; Study B3; ascorbic acid 25 mg/mL; day 3
[27] = target: ED-B fibronectin antigen protein (recombinant), bound to CNBr activated sepharose 4B (UniProt P02751); experiment: ED-B sepharose column, % of total radioactivity bound; Study A; inositol 10 mg/mL; day 7
[28] = target: ED-B fibronectin antigen protein (recombinant), bound to CNBr activated sepharose 4B (UniProt P02751); experiment: ED-B sepharose column, % of total radioactivity bound; Study A; methionine 25 mg/mL; day 1

Chain of UniProt P02751 (P02751 1266-1356 limits assumed): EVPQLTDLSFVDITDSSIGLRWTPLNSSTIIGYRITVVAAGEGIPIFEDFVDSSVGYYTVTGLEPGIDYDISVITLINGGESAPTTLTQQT
Chain of 131I L19-SIP (radioiodinated L19 SIP homodimer) (chain): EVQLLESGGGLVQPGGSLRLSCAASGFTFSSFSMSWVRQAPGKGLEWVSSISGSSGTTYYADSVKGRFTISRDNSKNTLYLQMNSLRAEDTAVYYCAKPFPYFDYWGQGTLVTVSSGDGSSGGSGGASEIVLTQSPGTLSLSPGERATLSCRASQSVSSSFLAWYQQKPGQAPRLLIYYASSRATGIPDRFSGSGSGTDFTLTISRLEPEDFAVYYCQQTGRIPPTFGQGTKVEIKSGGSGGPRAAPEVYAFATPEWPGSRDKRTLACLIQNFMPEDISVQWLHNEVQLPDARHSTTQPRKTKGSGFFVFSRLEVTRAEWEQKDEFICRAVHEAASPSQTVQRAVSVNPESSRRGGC
Chain of 131I L19-SIP (radioiodinated L19 SIP homodimer) (chain): as above

Immunoreactivity (IR) (%) [1]: 60.6% | Immunoreactivity (%) [2]: 47.6% | Immunoreactivity (%) [3]: 96.9% | Immunoreactivity (IR) (%) [4]: 61.9% | Immunoreactivity (%) [5]: 59.9% | Immunoreactivity (IR) (%) [6]: 73.2% | Immunoreactivity (%) [7]: 94.3% | Immunoreactivity (%) [8]: 71.6% | Immunoreactivity (%) [9]: 66.2% | Immunoreactivity (%) [10]: 57.2% | Immunoreactivity (%) [11]: 50.7% | Immunoreactivity (%) [12]: 91.7% | Immunoreactivity (%) [13]: 97.3% | Immunoreactivity (%) [14]: 75.7% | Immunoreactivity (%) [15]: 88% | Immunoreactivity (%) [16]: 70% | Immunoreactivity (%) [17]: 54.8% | Immunoreactivity (IR) (%) [18]: 56.4% | Immunoreactivity (%) [19]: 64.2% | Immunoreactivity (%) [20]: 83.5% | Immunoreactivity (%) [21]: 63.7% | Immunoreactivity (%) [22]: 77.6% | Immunoreactivity (IR) (%) [23]: 71.3% | Immunoreactivity (IR) (%) [24]: 46.8% | Immunoreactivity (%) [25]: 70.4% | Immunoreactivity (IR) (%) [26]: 78.7% | Immunoreactivity (%) [27]: 60.7% | Immunoreactivity (%) [28]: 89.6%
Substance: 131I L19-SIP (radioiodinated L19 SIP homodimer)
